# B1: Bxy_22780 (Bacteroides xylanisolvens XB1A) (protein)
# chain: RPPMYTSTNTEVPSRLVKNEHGSWQLIVNGKPFIMLAGELHNSSASTTEYLNSLWTSLKTLNLNTVLAPIAWEQFEPQEGIFDYTLINNMIDGARKNGFKLSILWFGSWKNGESSYAPTWVKEDTKRFFRVKSVEGKEIETISPFCENAMKADAKAFKTLVEHIKKVDQATGTVIALQPENEVGIFQGMDYSKASLAAYEQEVPQALIQYMKKNRKNLRKELLSVWEENGARTSGAWKTVFGDNAWSKSFYTTWQYATYIDFISAGAKEIYPLPTFCNCWLVQKPDDMPGVYPNGGPVSRVMDIWKAAAPHIDVLAPDIYLSDFKNIVADYHRADNPLLIPEAVMKPANAFWAFGEHSALCYSPFGIEDGADNFVFAQSYKVLNELIPLISEHQGSDRMIGVMKMPGESERTVTMGDYQLCIKYDAEDAYGLIIQTGKNEFVVAGINFKVYFTSTDKKKTGYIKQVWEGGYDTDGEWKATRLLNGDETYHNAVLIAKGRRTFTSEKSNNYNADHSDEIFVYSPTSYQAVWSPGIYRVTTYLR
# notes: N-terminal signal peptide (22 residues, counted with the 14 upstream residues) removed; C-terminal His6-tag (pET30a), E. coli BL21(DE3); homotetramer, D494 of a neighbouring subunit contacts subsite -1
# What was measured:
# [1] = target: Bxy_22780 (GH35 β-1,2-galactosidase from Bacteroides xylanisolvens), wild type (Bacteroides xylanisolvens); assay: crystal structure; WT enzyme co-crystallised with 20 mM galactose or MeβGal; reservoir 0.35 M potassium thiocyanate, 12% PEG 3350; 20 °C; oligomeric state from PISA server analysis of the crystal structures
# [2] = target: Bxy_22780 E350G mutant (nucleophile mutant) (Bacteroides xylanisolvens); assay: crystal structure; E350G mutant, ligand-free; 10–11 mg/ml in 50 mM MOPS (pH 7.5), 300 mM NaCl; reservoir 0.2 M sodium citrate tribasic dihydrate, 20% PEG 3350, 100 mM bis–Tris propane (pH 7.5); 20 °C; oligomeric state from PISA server analysis of the crystal structure
# [3] = substrate: O=[N+]([O-])c1ccc(O[C@@H]2O[C@H](CO)[C@H](O)[C@H](O)[C@H]2O)cc1; assay: purified protein; conditions: hydrolysis, kinetic assays at pH 7.5, 30 °C
# [4] = substrate: C[C@H]1O[C@@H](Oc2ccc([N+](=O)[O-])cc2)[C@H](O)[C@@H](O)[C@H]1O; assay: hydrolysis kinetics (read-out for this constant not clearly told); format: biochemical, Bacteroides xylanisolvens; conditions: kinetic assays at pH 7.5, 30 °C
# Description: hydrolysis kinetics (read-out for this constant not clearly told) on Bxy_22780
molecule,measurement,setting,value
"Bxy_22780 (GH35 β-1,2-galactosidase from Bacteroides xylanisolvens), wild type (enzyme)",stoichiometry N,[1],4
Bxy_22780 E350G mutant (nucleophile mutant) (enzyme),stoichiometry N,[2],4
B1,Km,[3],3.49 ± 0.53 mM
same,Vmax,[3],21.2 µmol/min/mg
same,Vmax/Km,[3],6080 µL/min/mg
same,Km,[4],7.95 ± 0.46 mM
same,Vmax,[4],14 µmol/min/mg
same,Vmax/Km,[4],1760 µL/min/mg

# Reference: publication PMC11739564, “Structure and function of a β-1,2-galactosidase from Bacteroides xylanisolvens, an intestinal bacterium” (Communications Biology, 2025)
